From patent publication US20220204626A1 (REMEGEN, published 2022)
Blank lines part the entries; values can stand above or below the binder they belong to.

Experiments:
CTLA-4 Protein = target: T1, CTLA-4 Protein (UniProt P16410 36-161, limits assumed); test: ELISA, CTLA-4 Protein coated at 20 µg/ml, biotinylated sample, detection with streptavidin-HRP
T1 sequence (looked up): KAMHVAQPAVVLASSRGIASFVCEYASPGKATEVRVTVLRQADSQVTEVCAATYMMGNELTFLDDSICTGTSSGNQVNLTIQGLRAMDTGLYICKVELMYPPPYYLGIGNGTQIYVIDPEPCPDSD
Description: Hib-PDC sample well and CD80-His well: Streptavidin-HRP was diluted at 1:2000, and added at 100 μl/well. Then the plate was incubated at 37° C. for 1 h±10 min;
(§1) (11) Reading: The absorbance values were read at 450/655 nm respectively using the MD microplate reader. The concentration of the sample to be tested was used as the abscissa and the absorbance value as the ordinate to plot making a 4-PL curve, and the software automatically gave the EC50 value. (see table 7).

VEGF = VEGF (UniProt P15692-4 27-191, limits assumed); test: ELISA, VEGF coated at 1 µg/ml, detection with anti-His-HRP
VEGF, sequence (P15692 other isoform, or with tags, fused parts or gaps limits assumed): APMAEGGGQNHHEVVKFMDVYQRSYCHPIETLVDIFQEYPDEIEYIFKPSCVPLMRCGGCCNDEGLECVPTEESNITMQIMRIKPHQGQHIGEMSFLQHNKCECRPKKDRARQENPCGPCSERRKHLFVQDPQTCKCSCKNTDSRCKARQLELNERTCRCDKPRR
Text: as §1

TGF-β1 [1] = target: T2, TGF-β1 (UniProt P01137 279-390, limits assumed); test: ELISA on coated TGF-β1, ratio of EC50 values against TGF-β-R-His
T2 sequence (P01137 279-390 limits assumed): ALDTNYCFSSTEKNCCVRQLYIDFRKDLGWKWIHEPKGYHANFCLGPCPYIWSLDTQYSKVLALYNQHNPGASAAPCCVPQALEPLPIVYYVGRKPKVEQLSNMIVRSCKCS
Text: as §1

TGF-β1 [2] = target: T2, TGF-β1; test: ELISA, TGF-β1 coated at 2 µg/ml, detection with goat anti-human Fc-HRP
Text: as §1

TGF-β1 [3] = target: T2, TGF-β1; test: ELISA, TGF-β1 coated at 2 µg/ml, detection with anti-His-HRP
Text: as §1

EC50 (CTLA-4 Protein): 50.7 nM
B1: CD80-His (ligand)
chain: VIHVTKEVKEVATLSCGHNVSVEELAQTRIYWQKEKKMVLTMMSGDMNIWPEYKNRTIFDITNNLSIVILALRPSDEGTYECVVLKYEKDAFKREHLAEVTLSVKADFPTPSISDFEIPTSNIRRIICSTSGGFPEPHLSWLENGEELNAINTTVSQDPETELYAVSSKLDFNMTTNHSFMCLIKYGHLRVNQTFNWN
modifications: biotinylated sample in the assay (sites not given)
notes: The His tag is set after the fragment only by default; also called CD80 monomer; His-tagged CD80 fragment; not shown: His tag

EC50 (VEGF): 2150 nM
B2: VEGF-R-His (receptor)
chain: GRPFVEMYSEIPEIIHMTEGRELVIPCRVTSPNITVTLKKFPLDTLIPDGKRIIWDSRKGFIISNATYKEIGLLTCEATVNGHLYKTNYLTHRQTNTIIDVVLSPSHGIELSVGEKLVLNCTARTELNVGIDFNWEYPSSKHQHKKLVNRDLKTQSGSEMKKFLSTLTIDGVTRSDQGLYTCAASSGLMTKKNSTFVRVHEP
notes: The His tag is set after the fragment only by default; also called VEGF receptor monomer; not shown: His tag

fold better binding activity than TGF-β receptor monomer (TGF-β1 [1]): ~70 times | EC50 (TGF-β1 [2]): 0.164 nM
B3: Hib-PLT (bispecific antibody)
heavy: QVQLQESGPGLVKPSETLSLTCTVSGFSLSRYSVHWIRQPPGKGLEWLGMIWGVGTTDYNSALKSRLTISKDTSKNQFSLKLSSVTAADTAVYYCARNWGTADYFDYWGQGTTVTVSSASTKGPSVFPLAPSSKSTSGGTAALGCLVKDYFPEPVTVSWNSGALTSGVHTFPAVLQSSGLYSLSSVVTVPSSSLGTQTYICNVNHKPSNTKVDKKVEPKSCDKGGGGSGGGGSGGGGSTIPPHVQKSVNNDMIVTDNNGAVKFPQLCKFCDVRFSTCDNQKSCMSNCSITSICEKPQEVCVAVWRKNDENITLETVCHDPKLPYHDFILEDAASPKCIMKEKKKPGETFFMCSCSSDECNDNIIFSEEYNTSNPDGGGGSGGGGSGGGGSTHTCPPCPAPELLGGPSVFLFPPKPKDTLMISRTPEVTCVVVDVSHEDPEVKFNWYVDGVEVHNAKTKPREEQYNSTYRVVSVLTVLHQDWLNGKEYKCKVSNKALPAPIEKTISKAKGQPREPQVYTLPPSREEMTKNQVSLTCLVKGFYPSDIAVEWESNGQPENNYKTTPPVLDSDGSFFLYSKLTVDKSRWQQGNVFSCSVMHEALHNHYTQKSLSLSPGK
light: DIVLTQSPASLAVSPGQRATITCRASKSVHTSGYSYMHWYQQKPGQPPKLLIYLASNLESGVPARFSGSGSGTDFTLTINPVEANDTANYYCQHSGELPYTFGGGTKVEIKRTVAAPSVFIFPPSDEQLKSGTASVVCLLNNFYPREAKVQWKVDNALQSGNSQESVTEQDSKDSTYSLSSTLTLSKADYEKHKVYACEVTHQGLSSPVTKSFNRGEC
notes: also called fusion protein Hib-PLT; Hibody bispecific fusion protein Hib-PLT

EC50 (TGF-β1 [3]): 11.6 nM
B4: TGF-β-R-His (receptor)
chain: TIPPHVQKSVNNDMIVTDNNGAVKFPQLCKFCDVRFSTCDNQKSCMSNCSITSICEKPQEVCVAVWRKNDENITLETVCHDPKLPYHDFILEDAASPKCIMKEKKKPGETFFMCSCSSDECNDNIIFSEEYNTSNPD
notes: The His tag is set after the fragment only by default; also called TGF-β receptor monomer; His-tagged TGF-βRII extracellular region fragment; not shown: His tag
